Assay results taken from US20040033228A1.

Biological target: TNF (UniProt P01375)
Test: cell-based or functional assay

Sequence of UniProt P01375 (P01375 77-233 limits assumed): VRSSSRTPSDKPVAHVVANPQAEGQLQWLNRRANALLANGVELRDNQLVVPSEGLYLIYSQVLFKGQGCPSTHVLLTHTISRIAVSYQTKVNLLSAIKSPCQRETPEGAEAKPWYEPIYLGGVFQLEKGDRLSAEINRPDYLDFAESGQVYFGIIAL

Work on D2E7 antibody yielded an In vitro TNF neutralization test; with 0.1% polysorbate 80; fast thaw -80° C. in water bath of 95.8, an In vitro TNF neutralization test; with 0.1% polysorbate 80; no freeze/thaw of 112 and an In vitro TNF neutralization test; with 0.1% polysorbate 80; slow thaw -30° C. in refrigerator of 96.2. It also gave an In vitro TNF neutralization test; with 0.1% polysorbate 80; slow thaw -80° in refrigerator of 96.7, an In vitro TNF neutralization test; without 0.1% polysorbate 80; fast thaw -30° C. in water bath of 118 and an In vitro TNF neutralization test; without 0.1% polysorbate 80; fast thaw -80° C. in water bath of 120. For the same substance, the In vitro TNF neutralization test; without 0.1% polysorbate 80; no freeze/thaw was 118, the In vitro TNF neutralization test; without 0.1% polysorbate 80; slow thaw -30° C. in refrigerator was 124 and the In vitro TNF neutralization test; without 0.1% polysorbate 80; slow thaw -80° in refrigerator was 103.
